Molecular target: CbpAC (pneumococcal surface protein C variant) of nonencapsulated Streptococcus pneumoniae strain MNZ41 (Streptococcus pneumoniae (nonencapsulated strain MNZ41))
Assay: flow cytometry on cells; 10^7 CFU viable pneumococci incubated with 200 µl of 10 µg/ml nonspecific mouse IgA for 1 h on ice; detected with biotinylated goat anti-mouse IgA and streptavidin-Alexa Fluor 488; percent positive cells gated above background

## nonspecific mouse IgA (antibody)
  percent positive cells (MNZ41 bacteria expressing CbpAC): 58.6%
